Test results published in patent US20120178701A1.
Bridge positions count the residues as written; N and C are the ends. Square brackets hold non-standard residues; d marks the D form. Primed or numbered codes have the meaning given here. * marks the point of attachment. Dap(betaPro) = diaminopropionic acid with a beta-prolyl group on the side-chain amine; Cyclopentylacetyl′ = not defined here; Cyclohexylacetyl = O=C(CC1CCCCC1)*; Orn = NCCC[C@H](N)C(=O)O; Dab = NCC[C@H](N)C(=O)O; Sar = CNCC(=O)O

B1: Ac-Arg-cyclo(hGlu-Dab-D-Phe-Arg-Trp-Dab)-NH2 (peptide)
peptide: RXXFRWX
modifications: N-acetyl; X2 = hGlu; X3 = Dab; D-Phe 4; X7 = Dab; side-chain lactam hGlu2-Dab7; C-terminal amide
B2: Ac-Arg-cyclo(Dab-Dab-D-Phe-Arg-Trp-hGlu)-NH2 (peptide)
peptide: RXXFRWX
modifications: N-acetyl; X2 = Dab; X3 = Dab; D-Phe 4; X7 = hGlu; side-chain lactam Dab2-hGlu7; C-terminal amide
B3: Ac-Arg-cyclo(Dab-Dab-D-Phe-Arg-Trp-hGlu)-OH (peptide)
peptide: RXXFRWX
modifications: N-acetyl; X2 = Dab; X3 = Dab; D-Phe 4; X7 = hGlu; side-chain lactam Dab2-hGlu7; C-terminal free acid (-OH)
B4: Ac-Arg-cyclo(hGlu-Dab-D-Phe-Arg-Trp-Dab)-OH (peptide)
peptide: RXXFRWX
modifications: N-acetyl; X2 = hGlu; X3 = Dab; D-Phe 4; X7 = Dab; side-chain lactam hGlu2-Dab7; C-terminal free acid (-OH)
B5: Ac-Arg-cyclo(Asp-Dab(Acetyl)-D-Phe-Arg-Trp-Lys)-NH2 (peptide)
peptide: RDXFRWK
HELM: PEPTIDE1{[ac].R.D.[Dab].[dF].R.W.K.[am]}|PEPTIDE2{[ac]}$PEPTIDE1,PEPTIDE2,4:R3-1:R2|PEPTIDE1,PEPTIDE1,3:R3-8:R3$$$V2.0
SMILES: CC(=O)NCC[C@@H]1NC(=O)[C@@H](NC(=O)[C@H](CCCNC(=N)N)NC(C)=O)CC(=O)NCCCC[C@@H](C(N)=O)NC(=O)[C@H](Cc2c[nH]c3ccccc23)NC(=O)[C@H](CCCNC(=N)N)NC(=O)[C@@H](Cc2ccccc2)NC1=O
B6: Ac-Arg-cyclo(Asp-Dab-D-Phe-Arg-Trp-Lys)-NH-cyclopropyl (peptide)
peptide: RDXFRWK
HELM: PEPTIDE1{[ac].R.D.[Dab].[dF].R.W.K.[C1CC1N[*:1]]}$PEPTIDE1,PEPTIDE1,3:R3-8:R3$$$V2.0
SMILES: CC(=O)N[C@@H](CCCNC(=N)N)C(=O)N[C@H]1CC(=O)NCCCC[C@@H](C(=O)NC2CC2)NC(=O)[C@H](Cc2c[nH]c3ccccc23)NC(=O)[C@H](CCCNC(=N)N)NC(=O)[C@@H](Cc2ccccc2)NC(=O)[C@H](CCN)NC1=O
B7: Ac-Arg-cyclo(Asp-Dap-D-Phe-Arg-Trp-Lys)-NH2 (peptide)
peptide: RDXFRWK
HELM: PEPTIDE1{[ac].R.D.[NC[C@H](N[*:1])C(=O)[*:2]].[dF].R.W.K.[am]}$PEPTIDE1,PEPTIDE1,3:R3-8:R3$$$V2.0
SMILES: CC(=O)N[C@@H](CCCNC(=N)N)C(=O)N[C@H]1CC(=O)NCCCC[C@@H](C(N)=O)NC(=O)[C@H](Cc2c[nH]c3ccccc23)NC(=O)[C@H](CCCNC(=N)N)NC(=O)[C@@H](Cc2ccccc2)NC(=O)[C@H](CN)NC1=O

Target: human recombinant melanocortin-4 receptor (human) (UniProt P32245)
Sequence (P32245 whole entry): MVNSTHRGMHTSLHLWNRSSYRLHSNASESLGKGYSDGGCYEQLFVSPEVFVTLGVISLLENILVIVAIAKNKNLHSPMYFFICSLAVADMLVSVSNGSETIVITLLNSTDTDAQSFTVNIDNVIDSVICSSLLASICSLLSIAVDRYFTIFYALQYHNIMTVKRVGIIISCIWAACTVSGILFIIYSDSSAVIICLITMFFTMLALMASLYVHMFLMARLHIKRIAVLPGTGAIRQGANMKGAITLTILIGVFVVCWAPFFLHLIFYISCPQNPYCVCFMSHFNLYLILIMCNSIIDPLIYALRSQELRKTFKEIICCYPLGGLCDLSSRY
Assay: cell-based or functional assay
Settings: not given

Binder	EC50 (cAMP) [nM]	intrinsic activity (cAMP; NDP-α-MSH = 100%) [%]
B1	0.06	98
B2	0.065	96

Target: human recombinant melanocortin-4 receptor (human) (UniProt P32245)
Assay: competitive inhibition of [I125]-NDP-α-MSH, hMC4-R HEK-293 membranes
Settings: not given

Binder	Ki [nM]
B3	35
B4	45

Target: human recombinant melanocortin-4 receptor (human) (UniProt P32245)
Assay: competitive inhibition of Eu-NDP-α-MSH (TRF), hMC4-R HEK-293 membranes
Settings: not given

Binder	Ki [nM]
B1	2
B2	4

Target: T1, human recombinant melanocortin-4 receptor (human), P32245
T1 sequence (P32245 whole entry): as above
Assay: competitive inhibition of [I125]-NDP-α-MSH, hMC4-R HEK-293 membranes
Settings: remark: other sources report otherwise

Binder	Ki [nM]
Cyclohexanoyl-RD[Dab][dF]RWK-NH2 (lactam 2-7) [Cyclohexanoyl-Arg-cyclo(Asp-Dab-D-Phe-Arg-Trp-Lys)-NH2]	0.4
{Cyclopentylacetyl′}-RD[Dab][dF]RWK-NH2 (lactam 2-7) [Cyclopentylacetyl-Arg-cyclo(Asp-Dab-D-Phe-Arg-Trp-Lys)-NH2]	0.8
Cyclohexylacetyl-RD[Dab][dF]RWK-NH2 (lactam 2-7) [Cyclohexylacetyl-Arg-cyclo(Asp-Dab-D-Phe-Arg-Trp-Lys)-NH2]	1
Phenylacetyl-RD[Dab][dF]RWK-NH2 (lactam 2-7) [Phenylacetyl-Arg-cyclo(Asp-Dab-D-Phe-Arg-Trp-Lys)-NH2]	2
Ac-RD[Orn](Ac)[dF]RWK-NH2 (lactam 2-7) [Ac-Arg-cyclo(Asp-Orn(Acetyl)-D-Phe-Arg-Trp-Lys)-NH2]	573
Ac-RD[Sar][dF]RWK-NH2 (lactam 2-7) [Ac-Arg-cyclo(Asp-Sar-D-Phe-Arg-Trp-Lys)-NH2]	15
B5	33
B6	3

Target: T1, human recombinant melanocortin-4 …
Assay: competitive inhibition of Eu-NDP-α-MSH (TRF), hMC4-R HEK-293 membranes
Settings: remark: other sources report otherwise

Binder	Ki [nM]
B7	80
Ac-RD[Orn][dF]RWK-NH2 (lactam 2-7) [Ac-Arg-cyclo(Asp-Orn-D-Phe-Arg-Trp-Lys)-NH2]	7
B5	88
Ac-RD[Dab](Gly)[dF]RWK-NH2 (lactam 2-7) [Ac-Arg-cyclo(Asp-Dab(Glycly)-D-Phe-Arg-Trp-Lys)-NH2]	110
Ac-RD[Dap(betaPro)][dF]RWK-NH2 (lactam 2-7) [Ac-Arg-cyclo(Asp-Dap(betaPro)-D-Ph-Arg-Trp-Lys)-NH2]	145
